“Also recorded” adds a separate entry of the source.

This is an account of results in patent publication US8143025B2, “Antibodies against vascular endothelial growth factor receptor-1” (ImClone LLC, priority 2004, dated 2012).

Test [1] addresses T1, native VEGFR-I on PAE-VEGFR-I cells (Homo sapiens, UniProt P17948).
T1 construct: host or cells: porcine aorta endothelial (PAE) cells
Description: Flow cytometry analysis, PAE-VEGFR-I cells. In kind it is binding. As to conditions: FIG. 7. As for the experimental part:
Aliquots of 10^6PAE-VEGFR-I cells were harvested from subconfluent cultures and incubated with anti-VEGFR-I antibody clones 6F9, 13G12, F11, and 18F1 in PBS with 1% bovine serum albumin (BSA) and 0.02% sodium azide (staining buffer) for one hour on ice. Aliquots of 10^6DU4475 human breast carcinoma cells were harvested from subconfluent cultures and incubated with anti-VEGFR-1 antibody clone 18F1 in PBS with 1% bovine serum albumin (BSA) and 0.02% sodium azide (staining buffer) for one hour on ice. A matched IgG isotype (Jackson ImmunoResearch, West Grove, Pa.) was used as a negative control. Cells were washed twice with flow buffer and then incubated with a fluorescein isothiocyanate (FITC)-labeled goat anti-human IgG antibody (BioSource International, Camarillo, Calif.) in staining buffer for 30 minutes on ice. Cells were washed as above and analyzed on an Epics XL flow cytometer (Beckman-Coulter, Hialeah, Fla.). Dead cells and debris were eliminated from the analysis on the basis of forward and sideways light scatter. The mean fluorescent intensity units (MFRJ) were calculated as the mean log fluorescence multiplied by the percentage of positive population.
(In flow cytometry, cells or beads pass a laser one at a time.)

In the next test the test system is SW480 cells. Briefly: Invasion through MATRIGEL coated membrane. The test is classed as cell-based, human. As to conditions: 66 nM antibody, 10 ng/mL VEGF-A or 50 ng/mL VEGF-B, 48 hours, p<0.05, FIG. 24. As for the experimental part: HT-29 cells (2.5×1 10^4) or SW480 cells (1.5×1 10^4) were incubated in medium containing 1% FBS with the anti-VEGFR-1 antibody 18F1 ([…]) 8.0-μm pore size membrane insert (Becton Dickinson Labware, Bedford, Mass.). The inserts were placed into lower chambers containing 10 ng/mL VEGF-A (R&D Systems) or 50 ng/mL VEGF-B (R&D Systems) for 48 hours. Cells remaining in the top chamber of the inserts were removed with a cotton swab. Cells migrating to the underside of the inserts were stained with Diff-Quik (Harleco, Gibbstown, N.J.) and counted in ten random fields at 100× magnification. Statistical analysis was performed using InStat Statistical Software (V2.03, GraphPad Software, San Diego, Calif.).

Test [2] deals with T2, VEGFR-I on PAE-VEGFR-I expressing cells (Homo sapiens, UniProt P17948).
T2 construct: host or cells: porcine aorta endothelial (PAE) cells
T2 sequence (P17948 27-1338): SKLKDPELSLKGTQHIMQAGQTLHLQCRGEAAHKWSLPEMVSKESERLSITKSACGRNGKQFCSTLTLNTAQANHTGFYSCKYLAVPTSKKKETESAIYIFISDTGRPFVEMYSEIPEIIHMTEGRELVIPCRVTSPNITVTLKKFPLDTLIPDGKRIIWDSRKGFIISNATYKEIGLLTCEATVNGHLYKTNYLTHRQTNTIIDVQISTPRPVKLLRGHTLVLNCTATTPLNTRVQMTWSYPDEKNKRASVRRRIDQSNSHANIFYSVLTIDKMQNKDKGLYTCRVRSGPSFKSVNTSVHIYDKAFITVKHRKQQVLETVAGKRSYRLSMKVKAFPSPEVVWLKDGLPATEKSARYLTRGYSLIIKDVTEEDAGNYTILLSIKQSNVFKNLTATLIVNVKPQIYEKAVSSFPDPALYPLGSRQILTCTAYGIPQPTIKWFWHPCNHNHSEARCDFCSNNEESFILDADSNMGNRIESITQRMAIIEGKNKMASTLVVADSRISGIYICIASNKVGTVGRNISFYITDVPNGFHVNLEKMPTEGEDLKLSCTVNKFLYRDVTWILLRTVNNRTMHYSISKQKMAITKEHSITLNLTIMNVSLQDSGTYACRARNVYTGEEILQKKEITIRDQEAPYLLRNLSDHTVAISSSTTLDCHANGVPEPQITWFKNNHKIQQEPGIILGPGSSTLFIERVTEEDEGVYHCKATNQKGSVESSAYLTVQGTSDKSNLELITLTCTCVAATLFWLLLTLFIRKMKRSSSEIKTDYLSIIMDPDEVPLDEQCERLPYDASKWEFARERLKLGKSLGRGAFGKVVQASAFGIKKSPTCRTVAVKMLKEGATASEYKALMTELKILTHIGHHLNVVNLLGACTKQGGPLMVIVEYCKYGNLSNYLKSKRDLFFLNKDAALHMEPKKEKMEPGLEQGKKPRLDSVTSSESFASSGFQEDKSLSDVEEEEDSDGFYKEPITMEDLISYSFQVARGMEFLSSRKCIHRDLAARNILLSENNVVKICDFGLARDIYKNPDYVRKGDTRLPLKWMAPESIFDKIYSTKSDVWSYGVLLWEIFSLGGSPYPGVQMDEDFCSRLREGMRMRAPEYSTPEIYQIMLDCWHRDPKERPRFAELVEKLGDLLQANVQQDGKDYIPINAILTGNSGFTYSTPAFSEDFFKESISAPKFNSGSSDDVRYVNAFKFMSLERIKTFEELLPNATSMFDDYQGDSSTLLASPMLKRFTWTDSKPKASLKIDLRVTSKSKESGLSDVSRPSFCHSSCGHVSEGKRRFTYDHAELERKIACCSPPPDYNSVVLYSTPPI
Briefly: Surface VEGFR-I blocking assay (125I-VEGF). The test is classed as binding. As to conditions: porcine aorta endothelial cells, FIG. 9. As for the experimental part:
The binding of ^125I-VEGF to VEGFR-I on cell surface was performed using PAE-VEGFR-I expressing cells. […] Confluent cells were incubated in serum- and growth supplement-free Dulbecco's Modified Eagle Medium (DMEM)ZF-12 medium (Invitrogen, Carlsbad, Calif.) for 24 hours. Cells were rinsed once with ice-cold DMEMZF-12 medium containing 0.025 M HEPES and 1 mgZml bovine serum albumin (BSA). A serial dilution of anti-VEGFR-I antibody 18F1 or cold VEGF at the concentration of a 200-fold molar excess of labeled VEGF was added to each well in the plate and incubated at 4° C. for 1 hour. After wash, ^125I-VEGF was added at the concentration of 2 ngZml and was incubated at 4° C. for 2 hours on a platform shaker. The cells were washed three times with PBS containing 1 mgZml BSA and 0.25 mM CaCl2, and were incubated for 5 minutes in the presence of 1% Triton X-100, 1 mgZml BSA, and 0.16% NaN3 to remove bound VEGF. The soluble content of each well was counted in a gamma counter. The assays were performed in triplicate in at least three independent experiments and the data were analyzed using Prism GraphPad software 3.03.

In another test the target is VEGFR-I (Homo sapiens, UniProt P17948). Briefly: VEGFR-I phosphorylation assay, PAE-VEGFR-I cells. In kind it is cell-based. The arrangement: host or cells: porcine aorta endothelial (PAE) cells. The conditions noted are these: PAE-VEGFR-I transfectant, compared to untreated control, FIG. 10. As for the experimental part: Confluent porcine aorta endothelial VEGFR-I expressing (PAE-VEGFR-I) cells and BT474 human breast carcinoma cells were cultured in serum-depleted F12 medium for 48 hours. The cells were then preincubated with anti-VEGFR-I antibody clone 18F1 at concentrations ranging from 0.1 to 30 μg/ml for 1 hour followed by stimulating with VEGF or PlGF for 5 minutes at 37° C. The cells were then rinsed with ice-cold PBS and lysed in lysis buffer (50 mM HEPES, 150 mM NaCl, 1% Triton X-100, and 10% glycerol containing 1 mM phenylmethylsulfonyl fluoride, 10 μg/ml aprotinin, 10 μg/ml leupeptin, and 1 mM sodium vanadate). Cell lysates were subjected to SDS-PAGE and transferred onto Immobilon membranes (Millipore Corp. Billerica, Mass.). […]
Chain of VEGFR-I (P17948 27-1338): as above
Autophosphorylation of the VEGFR-I induced by its ligands and resulting activation of a classical MAPK, extracellular signal-regulated protein kinases 1Z2 (ERK1Z2) and the PBK/Atk downstrean signaling pathways mediate cellular biological responses such as proliferation, motility, survival, and differentiation. The ability of an anti-VEGFR-1 antibody to inhibit phosphorylation of VEGFR-I and activation of ERK1 Z2 and the Akt kinases downstream signaling were determined by using the PAE-VEGFR-I transfectant and BT474 breast carcinoma cells. […]

T1 sequence (P17948 27-1338): as above

Regarding “18F1: human anti-VEGFR-1 monoclonal antibody clone; VL SEQ ID NO: 16, VH SEQ ID NO: 20 [Clone 18F1]”, in test [1], the “binding reactivity with PAE-VEGFR-I expressing cells” value is reported as “binding reactivity”. Besides, in the test with SW480 cells, the “VEGFR-I ligand induced invasion” value is listed as “completely blocked”. In addition, the “blocking of 125I-VEGF binding to native VEGFR-I” value in test [2] is reported as “strong blocking activity”. The “PlGF-stimulated phosphorylation of VEGFR-I” value with VEGFR-I is “significantly reduced; also recorded: reduction”.
